Laboratory results reported in paper PMC2654577.
Read-outs that look alike come from different tables or passages of the source.

Legend:
Assay in all cases: enzyme inhibition kinetics
[1] = target: factor XIa catalytic domain K175A (human)
[2] = target: factor XIa catalytic domain K179A (human)
[3] = target: factor XIa catalytic domain R171A (human) (UniProt P03951)
[4] = target: factor XIa catalytic domain K170A (human) (UniProt P03951)
[5] = target: wild type recombinant factor XIa, full length (human)
[6] = target: factor XIa catalytic domain K175A (human); remark: listed apart in the source
[7] = target: factor XIa catalytic domain K179A (human); remark: listed apart in the source
[8] = target: factor XIa catalytic domain R171A (human) (UniProt P03951); remark: listed apart in the source
[9] = target: factor XIa catalytic domain K170A (human) (UniProt P03951); remark: listed apart in the source
[10] = target: factor XIa catalytic domain R173A (human) (UniProt P03951)
[11] = target: full-length factor XIa with a Gln substitution for Arg-37 (human)
[12] = target: factor XIa catalytic domain K175A (human); remark: listed apart in the source
[13] = target: factor XIa catalytic domain K179A (human); remark: listed apart in the source
[14] = target: factor XIa catalytic domain R171A (human) (UniProt P03951); remark: listed apart in the source
[15] = target: factor XIa catalytic domain K170A (human) (UniProt P03951); remark: listed apart in the source
[16] = target: factor XIa catalytic domain R173A (human) (UniProt P03951); remark: listed apart in the source
[17] = target: full-length factor XIa with a Gln substitution for Arg-37 (human); remark: listed apart in the source
[18] = target: full-length factor XIa autolysis loop variant fXIa-144-149A (human)

Question: “antithrombin (from UniProt P01008 33-464) (natural protein)” was tested. Which k2 (second-order inhibition rate constant) [1] did it give?
Answer: 17000 M⁻¹ s⁻¹

Question: What about the k2 (second-order inhibition rate constant) [2] of the same substance?
Answer: 50000 M⁻¹ s⁻¹

Question: And the k2 (second-order inhibition rate constant) [3]?
Answer: 18000 M⁻¹ s⁻¹

Question: What about the k2 (second-order inhibition rate constant) [4] of the same substance?
Answer: 12000 M⁻¹ s⁻¹

Question: What about the k2 (second-order inhibition rate constant) [5] of the same substance?
Answer: 223000 M⁻¹ s⁻¹

Question: What about the k2 (second-order inhibition rate constant) [6] of the same substance?
Answer: 550 M⁻¹ s⁻¹

Question: What about the k2 (second-order inhibition rate constant) [7] of the same substance?
Answer: 680 M⁻¹ s⁻¹

Question: What about the k2 (second-order inhibition rate constant) [8] of the same substance?
Answer: 1200 M⁻¹ s⁻¹

Question: And the k2 (second-order inhibition rate constant) [9]?
Answer: 610 M⁻¹ s⁻¹

Question: What about the k2 (second-order inhibition rate constant) [10] of the same substance?
Answer: 560 M⁻¹ s⁻¹

Question: What about the k2 (second-order inhibition rate constant) [11] of the same substance?
Answer: 2620 M⁻¹ s⁻¹

Question: What about the k2 (second-order inhibition rate constant) [12] of the same substance?
Answer: 180 M⁻¹ s⁻¹

Question: And the k2 (second-order inhibition rate constant) [13]?
Answer: 250 M⁻¹ s⁻¹

Question: And the k2 (second-order inhibition rate constant) [14]?
Answer: 490 M⁻¹ s⁻¹

Question: And the k2 (second-order inhibition rate constant) [15]?
Answer: 230 M⁻¹ s⁻¹

Question: And the k2 (second-order inhibition rate constant) [16]?
Answer: 210 M⁻¹ s⁻¹

Question: And the k2 (second-order inhibition rate constant) [17]?
Answer: 1550 M⁻¹ s⁻¹

Question: What about the k2 (second-order inhibition rate constant), maximal [18] of the same substance?
Answer: 200000 M⁻¹ s⁻¹
